Patent US20040213833A1 (published 2004)
Positions of bridges follow the written chain, without caps; N, C: chain ends. No end group written: not given here.

T1: MMP-2 (matrix metalloproteinase-2, gelatinase), purified enzyme (UniProt P08253 110-660, limits assumed)
T1 sequence (looked up): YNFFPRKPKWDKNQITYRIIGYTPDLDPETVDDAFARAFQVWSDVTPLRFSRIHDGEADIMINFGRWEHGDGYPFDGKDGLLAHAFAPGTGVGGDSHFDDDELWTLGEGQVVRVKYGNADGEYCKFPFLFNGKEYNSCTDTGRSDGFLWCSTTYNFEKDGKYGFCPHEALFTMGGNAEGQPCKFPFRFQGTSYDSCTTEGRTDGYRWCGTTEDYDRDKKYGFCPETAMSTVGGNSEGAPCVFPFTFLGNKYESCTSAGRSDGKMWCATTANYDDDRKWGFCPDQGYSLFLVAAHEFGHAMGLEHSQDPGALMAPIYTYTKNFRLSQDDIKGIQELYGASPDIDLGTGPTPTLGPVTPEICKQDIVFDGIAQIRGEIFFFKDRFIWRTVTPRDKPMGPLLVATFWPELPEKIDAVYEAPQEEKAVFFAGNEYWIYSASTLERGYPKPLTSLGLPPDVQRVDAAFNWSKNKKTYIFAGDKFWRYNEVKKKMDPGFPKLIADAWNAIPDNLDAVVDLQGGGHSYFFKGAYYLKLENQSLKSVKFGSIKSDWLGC


Experiments:
Experiment in all cases: cell-based or functional assay
[1] = target: cell surface-bound gelatinases (of HT1080 cells)
[2] = target: MMP-9 (matrix metalloproteinase-9, gelatinase), purified enzyme (UniProt P14780 107-707, limits assumed)
[3] = target: T1, MMP-2 (matrix metalloproteinase-2, …)

Sequence of MMP-9 (matrix metalloproteinase-9, gelatinase), purified enzyme (P14780 107-707 limits assumed): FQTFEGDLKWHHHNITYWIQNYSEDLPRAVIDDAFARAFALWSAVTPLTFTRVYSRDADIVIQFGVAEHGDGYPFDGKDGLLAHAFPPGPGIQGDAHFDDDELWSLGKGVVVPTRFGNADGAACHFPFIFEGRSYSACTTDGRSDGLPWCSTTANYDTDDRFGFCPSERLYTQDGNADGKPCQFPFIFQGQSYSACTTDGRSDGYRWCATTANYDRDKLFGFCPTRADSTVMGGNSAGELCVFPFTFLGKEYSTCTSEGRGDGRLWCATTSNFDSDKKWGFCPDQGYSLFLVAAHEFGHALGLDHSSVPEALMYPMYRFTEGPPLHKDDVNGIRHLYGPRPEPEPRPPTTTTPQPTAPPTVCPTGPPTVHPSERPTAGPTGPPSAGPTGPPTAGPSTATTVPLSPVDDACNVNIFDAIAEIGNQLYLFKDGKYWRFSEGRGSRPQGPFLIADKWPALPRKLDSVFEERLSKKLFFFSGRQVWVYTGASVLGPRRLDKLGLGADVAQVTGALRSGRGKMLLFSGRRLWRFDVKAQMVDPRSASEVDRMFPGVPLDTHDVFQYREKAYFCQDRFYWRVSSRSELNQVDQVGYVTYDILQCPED

| Binder | transfer of rhodamine B liposomes with CTT into HT1080 cells after preincubation with TIMP-2 (10 µg/ml) [1] | IC50 of inhibition of MMP-9 activity, gelatinase assay with fluorogenic peptide substrate [2] | inhibition of MMP-2 activity, casein zymography (area digested), peptide at 85 uM [3] |
| --- | --- | --- | --- |
| CTTHWGFTLC (disulfide 1-10; also: adsorbed non-covalently to POPC/POPE liposomes) [CTT peptide … bound to POPC/POPE (80/20 mol/mol) liposomes] | 50 % inhibition |  |  |
| CTTHWGFTLC (disulfide 1-10) [CTT peptide CTTHWGFTLC (cyclic, free in solution)] |  | 8 µM | ~70 % inhibition |
| CLPGHWGFPSC (disulfide 1-11) [CLP peptide CLPGHWGFPSC] |  |  | 50 % inhibition |
| STTHWGFTLC [STT peptide … (linear analog of CTT)] |  |  | ~30 % inhibition |
| CTTHWGFTLC (disulfide 1-10; also: adsorbed non-covalently to POPC/POPE liposomes) [CTT peptide CTTHWGFTLC bound to POPC/POPE (80/20 mol/mol) liposomes] |  | 8 µM |  |
